The values below come from paper PMC4148193, “Chromatin Insulator Factors Involved in Long-Range DNA Interactions and Their Role in the Folding of the Drosophila Genome” (PLoS Genetics, 2014).

One data set addresses T1, BEAF32 (BEAF32B) (Drosophila, UniProt Q94513 1-282).
T1 sequence: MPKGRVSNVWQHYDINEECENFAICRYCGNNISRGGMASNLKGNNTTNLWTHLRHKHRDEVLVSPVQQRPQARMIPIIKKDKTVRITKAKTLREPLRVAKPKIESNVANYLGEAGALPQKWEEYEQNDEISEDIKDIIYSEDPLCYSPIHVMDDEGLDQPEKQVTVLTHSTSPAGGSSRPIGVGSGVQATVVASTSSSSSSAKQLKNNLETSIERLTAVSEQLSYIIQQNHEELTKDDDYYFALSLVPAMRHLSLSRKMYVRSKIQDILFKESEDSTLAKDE
As to the kind of experiment: competition; unlabeled DNAS vs 2.5 nM Cy3B-DNAS, 100 nM BEAF32; FA/FCS: 30 mM Tris/HCl pH 7.5, 100 mM NaCl, 20 uM ZnSO4, 5 mM mercaptoethanol, 0.01 mg/ml BSA, 0.004% Tween20, 2.5 nM DNA; EMSA: 150 mM NaCl, 30 mM Tris/HCl pH. The settings on record: protein: recombinant; tags: N-term MBP; C-term 6xHis; blunt. A general note: A gel shift assay detects complexes by their altered migration in electrophoresis.

For the next data set, the target named is T2, Chromator (Drosophila, UniProt Q86BS3 1-926).
T2 sequence: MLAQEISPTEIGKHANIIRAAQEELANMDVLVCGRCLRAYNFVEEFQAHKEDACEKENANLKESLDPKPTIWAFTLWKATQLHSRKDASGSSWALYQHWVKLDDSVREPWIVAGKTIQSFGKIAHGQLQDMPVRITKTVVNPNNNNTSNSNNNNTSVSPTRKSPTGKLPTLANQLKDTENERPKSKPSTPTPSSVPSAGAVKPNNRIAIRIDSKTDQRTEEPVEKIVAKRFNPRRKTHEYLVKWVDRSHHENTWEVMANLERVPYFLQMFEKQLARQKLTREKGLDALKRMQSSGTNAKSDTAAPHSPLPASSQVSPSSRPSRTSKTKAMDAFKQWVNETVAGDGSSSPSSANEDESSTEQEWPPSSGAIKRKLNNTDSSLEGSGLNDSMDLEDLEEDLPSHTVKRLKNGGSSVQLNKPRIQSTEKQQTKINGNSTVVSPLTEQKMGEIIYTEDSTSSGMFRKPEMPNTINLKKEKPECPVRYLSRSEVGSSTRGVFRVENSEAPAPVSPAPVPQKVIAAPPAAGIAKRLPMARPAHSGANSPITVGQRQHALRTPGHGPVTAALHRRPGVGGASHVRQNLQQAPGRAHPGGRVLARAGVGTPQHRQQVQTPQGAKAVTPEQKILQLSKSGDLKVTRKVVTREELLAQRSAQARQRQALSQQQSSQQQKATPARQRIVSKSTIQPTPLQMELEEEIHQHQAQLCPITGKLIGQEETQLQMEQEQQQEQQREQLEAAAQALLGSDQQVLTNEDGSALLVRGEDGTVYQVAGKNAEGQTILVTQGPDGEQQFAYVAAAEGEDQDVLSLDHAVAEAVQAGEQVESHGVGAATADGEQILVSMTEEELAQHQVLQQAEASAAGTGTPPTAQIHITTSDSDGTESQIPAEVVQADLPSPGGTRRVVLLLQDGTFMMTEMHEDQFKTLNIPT
As to the kind of experiment: fluorescence anisotropy; Hill n=2±0.2; 20 uM ZnSO4; FA/FCS: 30 mM Tris/HCl pH 7.5, 100 mM NaCl, 20 uM ZnSO4, 5 mM mercaptoethanol, 0.01 mg/ml BSA, 0.004% Tween20, 2.5 nM DNA; EMSA: 150 mM NaCl, 30 mM Tris/HCl pH. The settings on record: protein: recombinant; tags: N-term 6xHis; blunt. (Fluorescence polarisation rises when a labelled molecule tumbles more slowly, as on binding a larger partner.)

A word on the Ki: it is a measure of affinity in units of concentration, obtained from inhibition or displacement. One may read the Kd as a measure of binding affinity in units of concentration.

B1: DNAS (dsDNA)
DNA 1: AGAAGTCAGCGCGATAGCATCGATATTTTCGTGACACGCTTGTCATCCGATAGGTAGT
DNA 2: ACTACCTATCGGATGACAAGCGTGTCACGAAAATATCGATGCTATCGCGCTGACTTCT
As to B1, the Ki in the data set with BEAF32 (BEAF32B) came out at 20 ± 4 nM. Also, the Kd with Chromator is 360 ± 30 nM.
